From paper PMC2647316 (Nucleic Acids Research, 2008)

T1: GkDnaC replicative helicase WT (Geobacillus kaustophilus HTA426, UniProt Q5KU75 1-454)
T1 sequence: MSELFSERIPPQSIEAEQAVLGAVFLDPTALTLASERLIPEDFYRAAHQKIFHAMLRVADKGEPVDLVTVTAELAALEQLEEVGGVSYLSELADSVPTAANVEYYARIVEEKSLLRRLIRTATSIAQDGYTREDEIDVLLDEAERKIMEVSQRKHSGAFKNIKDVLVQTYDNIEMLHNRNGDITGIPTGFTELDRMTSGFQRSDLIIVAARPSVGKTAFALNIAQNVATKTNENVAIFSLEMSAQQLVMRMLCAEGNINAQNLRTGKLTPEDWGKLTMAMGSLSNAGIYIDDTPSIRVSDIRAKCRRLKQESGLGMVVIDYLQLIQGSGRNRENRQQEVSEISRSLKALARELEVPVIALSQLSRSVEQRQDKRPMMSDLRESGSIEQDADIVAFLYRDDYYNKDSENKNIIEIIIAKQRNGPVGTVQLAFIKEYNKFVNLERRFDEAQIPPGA


What was measured:
SEC = target: the molecule itself; assay: SEC
crystal structure = target: the molecule itself; assay: crystal structure
[1] = target: T1, GkDnaC replicative helicase WT; assay: X-ray crystal structure

Binder	stoichiometry N (SEC)	other results
GkDnaC R145K146A double mutant (enzyme, Geobacillus kaustophilus HTA426, UniProt Q5KU75 1-454, looked up) MSELFSERIPPQSIEAEQAVLGAVFLDPTALTLASERLIPEDFYRAAHQKIFHAMLRVADKGEPVDLVTVTAELAALEQLEEVGGVSYLSELADSVPTAANVEYYARIVEEKSLLRRLIRTATSIAQDGYTREDEIDVLLDEAEAAIMEVSQRKHSGAFKNIKDVLVQTYDNIEMLHNRNGDITGIPTGFTELDRMTSGFQRSDLIIVAARPSVGKTAFALNIAQNVATKTNENVAIFSLEMSAQQLVMRMLCAEGNINAQNLRTGKLTPEDWGKLTMAMGSLSNAGIYIDDTPSIRVSDIRAKCRRLKQESGLGMVVIDYLQLIQGSGRNRENRQQEVSEISRSLKALARELEVPVIALSQLSRSVEQRQDKRPMMSDLRESGSIEQDADIVAFLYRDDYYNKDSENKNIIEIIIAKQRNGPVGTVQLAFIKEYNKFVNLERRFDEAQIPPGA	6	
Geobacillus kaustophilus HTA426 DnaC helicase, wild type (enzyme, UniProt Q5KU75 1-454, looked up) MSELFSERIPPQSIEAEQAVLGAVFLDPTALTLASERLIPEDFYRAAHQKIFHAMLRVADKGEPVDLVTVTAELAALEQLEEVGGVSYLSELADSVPTAANVEYYARIVEEKSLLRRLIRTATSIAQDGYTREDEIDVLLDEAERKIMEVSQRKHSGAFKNIKDVLVQTYDNIEMLHNRNGDITGIPTGFTELDRMTSGFQRSDLIIVAARPSVGKTAFALNIAQNVATKTNENVAIFSLEMSAQQLVMRMLCAEGNINAQNLRTGKLTPEDWGKLTMAMGSLSNAGIYIDDTPSIRVSDIRAKCRRLKQESGLGMVVIDYLQLIQGSGRNRENRQQEVSEISRSLKALARELEVPVIALSQLSRSVEQRQDKRPMMSDLRESGSIEQDADIVAFLYRDDYYNKDSENKNIIEIIIAKQRNGPVGTVQLAFIKEYNKFVNLERRFDEAQIPPGA		stoichiometry N (crystal structure): 6
GkDnaC K50A (enzyme, Geobacillus kaustophilus HTA426, UniProt Q5KU75 1-454, looked up) MSELFSERIPPQSIEAEQAVLGAVFLDPTALTLASERLIPEDFYRAAHQAIFHAMLRVADKGEPVDLVTVTAELAALEQLEEVGGVSYLSELADSVPTAANVEYYARIVEEKSLLRRLIRTATSIAQDGYTREDEIDVLLDEAERKIMEVSQRKHSGAFKNIKDVLVQTYDNIEMLHNRNGDITGIPTGFTELDRMTSGFQRSDLIIVAARPSVGKTAFALNIAQNVATKTNENVAIFSLEMSAQQLVMRMLCAEGNINAQNLRTGKLTPEDWGKLTMAMGSLSNAGIYIDDTPSIRVSDIRAKCRRLKQESGLGMVVIDYLQLIQGSGRNRENRQQEVSEISRSLKALARELEVPVIALSQLSRSVEQRQDKRPMMSDLRESGSIEQDADIVAFLYRDDYYNKDSENKNIIEIIIAKQRNGPVGTVQLAFIKEYNKFVNLERRFDEAQIPPGA	6	
GkDnaC R117A (enzyme, Geobacillus kaustophilus HTA426, UniProt Q5KU75 1-454, looked up) MSELFSERIPPQSIEAEQAVLGAVFLDPTALTLASERLIPEDFYRAAHQKIFHAMLRVADKGEPVDLVTVTAELAALEQLEEVGGVSYLSELADSVPTAANVEYYARIVEEKSLLRALIRTATSIAQDGYTREDEIDVLLDEAERKIMEVSQRKHSGAFKNIKDVLVQTYDNIEMLHNRNGDITGIPTGFTELDRMTSGFQRSDLIIVAARPSVGKTAFALNIAQNVATKTNENVAIFSLEMSAQQLVMRMLCAEGNINAQNLRTGKLTPEDWGKLTMAMGSLSNAGIYIDDTPSIRVSDIRAKCRRLKQESGLGMVVIDYLQLIQGSGRNRENRQQEVSEISRSLKALARELEVPVIALSQLSRSVEQRQDKRPMMSDLRESGSIEQDADIVAFLYRDDYYNKDSENKNIIEIIIAKQRNGPVGTVQLAFIKEYNKFVNLERRFDEAQIPPGA	6	
GkDnaC R120A (enzyme, Geobacillus kaustophilus HTA426, UniProt Q5KU75 1-454, looked up) MSELFSERIPPQSIEAEQAVLGAVFLDPTALTLASERLIPEDFYRAAHQKIFHAMLRVADKGEPVDLVTVTAELAALEQLEEVGGVSYLSELADSVPTAANVEYYARIVEEKSLLRRLIATATSIAQDGYTREDEIDVLLDEAERKIMEVSQRKHSGAFKNIKDVLVQTYDNIEMLHNRNGDITGIPTGFTELDRMTSGFQRSDLIIVAARPSVGKTAFALNIAQNVATKTNENVAIFSLEMSAQQLVMRMLCAEGNINAQNLRTGKLTPEDWGKLTMAMGSLSNAGIYIDDTPSIRVSDIRAKCRRLKQESGLGMVVIDYLQLIQGSGRNRENRQQEVSEISRSLKALARELEVPVIALSQLSRSVEQRQDKRPMMSDLRESGSIEQDADIVAFLYRDDYYNKDSENKNIIEIIIAKQRNGPVGTVQLAFIKEYNKFVNLERRFDEAQIPPGA	6	
GkDnaC R145A (enzyme, Geobacillus kaustophilus HTA426, UniProt Q5KU75 1-454, looked up) MSELFSERIPPQSIEAEQAVLGAVFLDPTALTLASERLIPEDFYRAAHQKIFHAMLRVADKGEPVDLVTVTAELAALEQLEEVGGVSYLSELADSVPTAANVEYYARIVEEKSLLRRLIRTATSIAQDGYTREDEIDVLLDEAEAKIMEVSQRKHSGAFKNIKDVLVQTYDNIEMLHNRNGDITGIPTGFTELDRMTSGFQRSDLIIVAARPSVGKTAFALNIAQNVATKTNENVAIFSLEMSAQQLVMRMLCAEGNINAQNLRTGKLTPEDWGKLTMAMGSLSNAGIYIDDTPSIRVSDIRAKCRRLKQESGLGMVVIDYLQLIQGSGRNRENRQQEVSEISRSLKALARELEVPVIALSQLSRSVEQRQDKRPMMSDLRESGSIEQDADIVAFLYRDDYYNKDSENKNIIEIIIAKQRNGPVGTVQLAFIKEYNKFVNLERRFDEAQIPPGA	6	
GkDnaC R330A (enzyme, Geobacillus kaustophilus HTA426, UniProt Q5KU75 1-454, looked up) MSELFSERIPPQSIEAEQAVLGAVFLDPTALTLASERLIPEDFYRAAHQKIFHAMLRVADKGEPVDLVTVTAELAALEQLEEVGGVSYLSELADSVPTAANVEYYARIVEEKSLLRRLIRTATSIAQDGYTREDEIDVLLDEAERKIMEVSQRKHSGAFKNIKDVLVQTYDNIEMLHNRNGDITGIPTGFTELDRMTSGFQRSDLIIVAARPSVGKTAFALNIAQNVATKTNENVAIFSLEMSAQQLVMRMLCAEGNINAQNLRTGKLTPEDWGKLTMAMGSLSNAGIYIDDTPSIRVSDIRAKCRRLKQESGLGMVVIDYLQLIQGSGANRENRQQEVSEISRSLKALARELEVPVIALSQLSRSVEQRQDKRPMMSDLRESGSIEQDADIVAFLYRDDYYNKDSENKNIIEIIIAKQRNGPVGTVQLAFIKEYNKFVNLERRFDEAQIPPGA	6	
GkDnaC R332A (enzyme, Geobacillus kaustophilus HTA426, UniProt Q5KU75 1-454, looked up) MSELFSERIPPQSIEAEQAVLGAVFLDPTALTLASERLIPEDFYRAAHQKIFHAMLRVADKGEPVDLVTVTAELAALEQLEEVGGVSYLSELADSVPTAANVEYYARIVEEKSLLRRLIRTATSIAQDGYTREDEIDVLLDEAERKIMEVSQRKHSGAFKNIKDVLVQTYDNIEMLHNRNGDITGIPTGFTELDRMTSGFQRSDLIIVAARPSVGKTAFALNIAQNVATKTNENVAIFSLEMSAQQLVMRMLCAEGNINAQNLRTGKLTPEDWGKLTMAMGSLSNAGIYIDDTPSIRVSDIRAKCRRLKQESGLGMVVIDYLQLIQGSGRNAENRQQEVSEISRSLKALARELEVPVIALSQLSRSVEQRQDKRPMMSDLRESGSIEQDADIVAFLYRDDYYNKDSENKNIIEIIIAKQRNGPVGTVQLAFIKEYNKFVNLERRFDEAQIPPGA	6	
GkDnaC R344A (enzyme, Geobacillus kaustophilus HTA426, UniProt Q5KU75 1-454, looked up) MSELFSERIPPQSIEAEQAVLGAVFLDPTALTLASERLIPEDFYRAAHQKIFHAMLRVADKGEPVDLVTVTAELAALEQLEEVGGVSYLSELADSVPTAANVEYYARIVEEKSLLRRLIRTATSIAQDGYTREDEIDVLLDEAERKIMEVSQRKHSGAFKNIKDVLVQTYDNIEMLHNRNGDITGIPTGFTELDRMTSGFQRSDLIIVAARPSVGKTAFALNIAQNVATKTNENVAIFSLEMSAQQLVMRMLCAEGNINAQNLRTGKLTPEDWGKLTMAMGSLSNAGIYIDDTPSIRVSDIRAKCRRLKQESGLGMVVIDYLQLIQGSGRNRENRQQEVSEISASLKALARELEVPVIALSQLSRSVEQRQDKRPMMSDLRESGSIEQDADIVAFLYRDDYYNKDSENKNIIEIIIAKQRNGPVGTVQLAFIKEYNKFVNLERRFDEAQIPPGA	6	
TTTTTTTTTTTTTTT (ssDNA) [(dT)15]		binding result [1]: binds
